Test results published in patent publication US20260166185A1 (Y MABS THERAPEUTICS, published 2026).

B1: CD276-DOTA(fab)-p53 (bispecific antibody)
light: DVQLVESGGGLVQPGGSLRLSCAASGFTFSRYWMGWFRQAPGKGVEWVSTINSGGGSTYYADSVKGRFTISRDNAKNTLYLQLNNLKTEDTAMYYCAKEQWRTGSRGQGTQVTVSSSGGGGSGGGGSGGGGSGGGGSQAVVIQESALTTPPGETVTLTCGSSTGAVTASNYANWVQEKPDHLFTGLIGGHNNRPPGVPARFSGSLIGDKAALTIAGTQTEDEAIYFCALWYSDHWVIGGGTRLTVLGQPKANPTVTLFPPSSEELQANKATLVCLISDFYPGAVTVAWKADGSPVKAGVETTKPSKQSNNKYAASSYLSLTPEQWKSHRSYSCQVTHEGSTVEKTVAPTECS
heavy: HVKLQESGPGLVQPSQSLSLTCTVSGFSLTDYGVHWVRQSPGKGLEWLGVIWSGGGTAYNTALISRLNIYRDNSKNQVFLEMNSLQAEDTAMYYCARRGSYPYNYFDAWGRGTTVTVSSASTKGPSVFPLAPSSKSTSGGTAALGCLVKDYFPEPVTVSWNSGALTSGVHTFPAVLQSSGLYSLSSVVTVPSSSLGTQTYICNVNHKPSNTKVDKKVEPKSCGGGGSGGGGSKPLDGEYFTLQIRGRERFEMFRELNEALELKDAQAGKEPGGS
notes: Tetramerizes through p53 depending on concentration; also called YM00012; molecule 11
B2: CD38 (Bivalent)-DOTA(Fab)-dp53 (bispecific antibody)
light: DVQLQESGGGLVQAGGSLRLSCTGSGRTFRNYPMAWFRQAPGKEREFVAGITWVGASTLYADFAKGRFTISRDNAKNTVYLQMNSLKPEDTAVYSCAAGRGIVAGRIPAEYADWGQGTQVTVSSGGGGSGGGGSGGGGSGGGGGSQAVVIQESALTTPPGETVTLTCGSSTGAVTASNYANWVQEKPDHLFTGLIGGHNNRPPGVPARFSGSLIGDKAALTIAGTQTEDEAIYFCALWYSDHWVIGGGTRLTVLGQPKANPTVTLFPPSSEELQANKATLVCLISDFYPGAVTVAWKADGSPVKAGVETTKPSKQSNNKYAASSYLSLTPEQWKSHRSYSCQVTHEGSTVEKTVAPTECS
heavy: DVQLQESGGGLVQAGGSLRLSCTGSGRTFRNYPMAWFRQAPGKEREFVAGITWVGASTLYADFAKGRFTISRDNAKNTVYLQMNSLKPEDTAVYSCAAGRGIVAGRIPAEYADWGQGTQVTVSSGGGGSGGGGSGGGGSGGGGGSHVKLQESGPGLVQPSQSLSLTCTVSGFSLTDYGVHWVRQSPGKGLEWLGVIWSGGGTAYNTALISRLNIYRDNSKNQVFLEMNSLQAEDTAMYYCARRGSYPYNYFDAWGRGTTVTVSSASTKGPSVFPLAPSSKSTSGGTAALGCLVKDYFPEPVTVSWNSGALTSGVHTFPAVLQSSGLYSLSSVVTVPSSSLGTQTYICNVNHKPSNTKVDKKVEPKSCG
notes: No tetramerization domain; also called YM00005; molecule 4

Assays:
[1] = target: T1, CD276 on HEK293T cells (UniProt Q5ZPR3 29-534, limits assumed); test: titration binding FACS on HEK293T cells
T1 construct: whole, on cells
T1 sequence (looked up): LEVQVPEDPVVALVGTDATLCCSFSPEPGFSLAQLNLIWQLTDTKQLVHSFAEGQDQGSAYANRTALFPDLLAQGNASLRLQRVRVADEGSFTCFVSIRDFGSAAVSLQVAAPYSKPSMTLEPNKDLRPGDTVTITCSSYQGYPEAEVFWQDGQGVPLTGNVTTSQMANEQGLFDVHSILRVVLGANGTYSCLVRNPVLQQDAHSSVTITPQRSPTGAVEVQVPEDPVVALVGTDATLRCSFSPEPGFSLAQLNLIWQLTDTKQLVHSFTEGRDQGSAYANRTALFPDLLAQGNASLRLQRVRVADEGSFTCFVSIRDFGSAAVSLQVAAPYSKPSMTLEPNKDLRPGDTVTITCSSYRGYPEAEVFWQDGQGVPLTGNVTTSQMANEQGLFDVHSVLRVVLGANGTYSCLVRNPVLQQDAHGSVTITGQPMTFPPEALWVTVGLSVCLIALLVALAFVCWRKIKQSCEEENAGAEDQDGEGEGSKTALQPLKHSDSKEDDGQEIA
Experimental: (§1) Subsequently the EC50 of antibodies samples was determined by titration binding FACS on Daudi cells (for CD38 binding evaluation), on THP-1 cells (for CD33 binding evaluation), on A-431 cells (for EGFR binding evaluation), on MKN-45 cells (for CEACAMS binding evaluation) and on HEK293T (for CD276 binding evaluation). Jurkat E6-1 or HEK293T cell lines were used as negative control, as applicable.

[2] = target: T2, bio-huCD276 (human (hu), UniProt Q5ZPR3 29-461, limits assumed, biotinylated (bio-), site not stated); test: SPR, antigen immobilized, antibody as analyte 25-1.6 nM
T2 construct: also called B7-H3
T2 sequence (looked up): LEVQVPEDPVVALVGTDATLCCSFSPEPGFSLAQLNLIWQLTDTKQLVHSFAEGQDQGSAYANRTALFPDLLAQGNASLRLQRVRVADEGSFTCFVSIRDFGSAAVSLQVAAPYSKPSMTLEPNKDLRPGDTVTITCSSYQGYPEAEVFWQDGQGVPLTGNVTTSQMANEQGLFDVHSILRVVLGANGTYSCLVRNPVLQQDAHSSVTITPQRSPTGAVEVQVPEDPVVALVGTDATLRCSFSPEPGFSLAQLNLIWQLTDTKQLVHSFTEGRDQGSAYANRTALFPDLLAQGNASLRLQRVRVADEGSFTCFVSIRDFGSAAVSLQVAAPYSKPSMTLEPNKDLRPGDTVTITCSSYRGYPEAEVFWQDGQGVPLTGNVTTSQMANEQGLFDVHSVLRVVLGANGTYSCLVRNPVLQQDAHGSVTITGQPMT
Experimental: (§2) SPR analysis was performed on a Biocore 8K+, using a CFJB0944 CM5 sensor chip for immobilization and a SPR running buffer 1×HBS-EP+pH 7.4 (Cytiva, cat no. BR100669) according to the manufacturer's instructions.
(§3) In the second part of this example, antigen was immobilized on the chip and antibody dissolved in the SPR running buffer flowed over the chip.

[3] = target: T2, bio-huCD276; test: SPR, antibody captured on chip, antigen as analyte 400-12.5 nM
Experimental: as §2
(§4) In the first part of this example the antibody was immobilized on the chip and the antigen dissolved in the SPR running buffer flowed over the chip.

[4] = target: T3, CD38 on Daudi cells (UniProt P28907 1-300, limits assumed); test: titration binding FACS on Daudi cells
T3 construct: whole, on cells
Experimental: as §1

[5] = target: T4, bio-huCD38 (human (hu), UniProt P28907 43-300, biotinylated (bio-), site not stated); test: SPR, antigen immobilized, antibody as analyte 25-1.6 nM
Experimental: as §2, §3

[6] = target: T4, bio-huCD38; test: SPR, antibody captured on chip, antigen as analyte 200-6.25 nM
Experimental: as §2, §4

[7] = target: T4, bio-huCD38; test: SPR, antigen immobilized, antibody as analyte 25-1.6 nM; at the instrument's limit
[8] = target: T4, bio-huCD38; test: SPR, antigen immobilized, antibody as analyte 25-1.6 nM; estimated from ka and the limit kd
Experimental: as §2, §3

| Binder | EC50 [1] [nM] | Kd [2] [nM] | koff [2] [s⁻¹] | kon [2] [M⁻¹ s⁻¹] | Kd [3] [nM] | koff [3] [s⁻¹] | kon [3] [M⁻¹ s⁻¹] | EC50 [4] [nM] | kon [5] [M⁻¹ s⁻¹] | Kd [6] [nM] | koff [6] [s⁻¹] | kon [6] [M⁻¹ s⁻¹] | koff [7] [s⁻¹] | Kd [8] [nM] |
| --- | --- | --- | --- | --- | --- | --- | --- | --- | --- | --- | --- | --- | --- | --- |
| B1 | 2.14 | 2.5 | 2.26e-05 | 9050 | 40.1 | 0.00456 | 114000 |  |  |  |  |  |  |  |
| B2 |  |  |  |  |  |  |  | 0.32 | 324000 | 25.1 | 0.00112 | 44700 | < 1e-07 | < 0.000309 |
